According to publication PMC6730670:

Target: Yn-ABHD5 (UniProt Q9DBL9)
Assay: split reporter

Yn-ABHD5, sequence (Q9DBL9 whole entry): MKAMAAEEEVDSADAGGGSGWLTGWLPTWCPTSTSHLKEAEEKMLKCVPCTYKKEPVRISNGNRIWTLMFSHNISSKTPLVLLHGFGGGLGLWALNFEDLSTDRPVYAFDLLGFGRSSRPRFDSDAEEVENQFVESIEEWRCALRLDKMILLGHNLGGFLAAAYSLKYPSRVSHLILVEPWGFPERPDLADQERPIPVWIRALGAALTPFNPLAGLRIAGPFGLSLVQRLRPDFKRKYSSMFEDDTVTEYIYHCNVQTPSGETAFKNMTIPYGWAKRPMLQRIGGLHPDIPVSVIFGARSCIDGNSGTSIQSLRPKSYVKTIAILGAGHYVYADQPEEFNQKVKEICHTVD

- percent of transfected cells with BiFC: > 90%
Substance: PNPLA3-Yc (from UniProt Q91WW7 1-413) (natural protein)
